Values of other authors in patent US5744316A, “Isolated, tyrosinase derived peptides and uses thereof” (Ludwig Institute for Cancer Research, priority 1996, dated 1998).
Where no end group is shown, it is not given here.

Experiments:
HLA-B*4402 molecules = HLA-B*4402 molecules (Homo sapiens, UniProt P01889, A223V/A65T/A93T/A95T/D201E/D98Y/E176V/E187L/E204Q/E69K/G107R/H137Y/K202T/L105A/L119I/N104T/N87E/Q56L/Q94N/R106L/R155S/R180D/S101N/S121R/S35A/S48T/T118I/V36M/W191S/Y140D/Y91S); settings: Coulie et al. 1995
HLA-B44 = settings: Burrows et al. 1990

| Sequence | binding to HLA-B*4402 molecules (HLA-B*4402 molecules) | binding by HLA-B44 (HLA-B44) |
| --- | --- | --- |
| EEKLIVVLF [SEQ ID NO: 11] | binds | – |
| EENLLDFVRF [SEQ ID NO: 9] | – | bound |
